B1: LINE1-mini (parent)
chain: GGCAGAGCUCAACACAGCGUGGCAAAGUGGCUGUGGCUAGACUGCC

Variants of: B1
Assay: self-cleavage, relative activity (ratio to wild type); higher = more cleavage; in vitro, sequencing; the parent is a self-cleaving ribozyme

Variant	self-cleavage
A24G G30A	1.11
G27C A39G	0.06
G19A A25C	1.21
C15G C37U	0.04
G30U G40U	0.13
A25C A41C	0.04
A6C C13U	0.14
C23G A26U	1.62
G2U G17U	0.04
A12U G33U	0.04
G2C U32A	0.17
G30U U38C	1.12
A11C A39U	0.03
G30C C37A	0.07
U32A G36C	0.11
G2C A6G	0.07
A11U C46U	0.12
A25G G27U	0.48
U9A A16C	0.08
A6C G19A	1.02
C15G C18G	0.05
C10A A24G	0.06
G36U A39C	0.08
A12U G29C	0.05

Variant	self-cleavage
A4U G5U	0.12
C18U C31U	0.04
U9A G19A	0.15
C10A G29U	0.04
C10U G17C	0.61
G7A U20G	0.06
A12U U32C	0.07
G30C C45A	0.33
G40C U43A	0.06
A11U A39U	0.05
A16G G30U	0.31
U32G G35U	0.06
G1U C37G	0.03
A4G G36C	0.16
U34C G40C	0.02
G2C A39C	0.09
C37A U38G	0.03
G5U C46U	0.07
G35C C42A	0.1
A26G A41G	0.2
C3U C31A	0.07
G17A U20A	0.1
G1C C31G	0.01
G19U U28G	0.73

Variant	self-cleavage
C13U G17C	0.11
A14G A24G	0.76
G36U U38A	0.05
C23A U38G	0.02
U38C G44U	0.27
A25U U28A	0.5
U34A G40C	0.04
A26U A39C	0.25
G1A C13U	0.2
C10A C31U	0.04
A11C C13U	0.03
G21U G30U	1
C3U G5U	0.2
G35C C46A	0.1
C15G U43A	0.02
A11U A26G	0.13
C3A G27A	0.31
C3U U38A	0.19
G7C G44C	0.18
U20A G36C	0.07
G17A G29C	0.68
G1A A11C	0.04
U28A G40C	0.09
C8A A41C	0.36

Variant	self-cleavage
U20A G22A	0.55
A26U U38G	0.03
C13A A39U	0.23
A12G A25U	0.03
G40C G44U	0.07
U38C A39C	0.1
U34G C37G	0.07
C13A G40C	0.07
A12G A26U	0.03
C31A A39G	0.05
G2U U9C	0.01
A11C C18U	0.04
A25C C31A	0.09
C23U U34C	0.62
A6G G7A	0.11
G19U G22U	0.63
C15U G30A	0.35
G33C A41U	0.08
G33C G35A	0.04
C8U G30A	0.24
A12G C46G	0.05
U28G U34G	0.23
C10U G35A	0.08
G7C G22U	0.12

Variant	self-cleavage
A6G G40C	0.05
U9G C10U	0.05
A11U C15U	0.17
A24U G29A	1.72
U28A G44A	0.23
G30U C42A	0.12
C13G A24G	0.22
U20C U32A	0.05
G7C G36C	0.1
A16C A41U	0.05
G40U A41G	0.09
C8U C15A	0.11
A4C A11U	0.04
A4G C18A	0.31
G2A G5U	0.27
A12G G27U	0.04
C13U G40A	0.1
A12G G27C	0.03
C13U C46G	0.09
A14U A39C	0.14
U9G C13U	0.11
C3G G36U	0.2
G27U U38A	0.39
C13U A14U	0.1

Variant	self-cleavage
A25G G35A	0.11
C8A G35U	0.44
A16U G29A	0.38
G2C C45G	0.61
G22A A39G	0.17
G21A A41C	0.12
G19U G40A	0.08
A12C A16U	0.01
A26C U38C	0.83
G2U A12U	0.04
G22A G27A	0.51
A6U G44A	0.64
C10G G21C	0.07
A6C U20C	0.33
U34C A41U	0.06
A12U C37A	0.05
G5U G21U	0.1
G2C A6C	0.12
A11C A12U	0.03
C15G G40U	0.09
G33C G36U	0.06
A25U G30C	0.46
A6C U9C	0.03
A6G C31U	0.03

Variant	self-cleavage
C31U A39U	0.13
A14U G36A	0.15
A14C U20C	0.08
A4C A41C	0.12
U20G G40U	0.13
C3G C10U	0.19
G5A G33U	0.05
U28A U34C	0.07
A11C A12C	0.02
A25C G35A	0.11
U28A C31G	0.13
C15U G29A	1.1
G1U A41G	0.1
G1C G33A	0.03
C10U A16U	0.19
G35U A41U	0.14
C18G U28C	0.36
G21C U28C	1.39
C10G G44C	0.06
U20A U32C	0.09
C3U A12G	0.06
G2C G22C	0.05
U34C U43G	0.31
G5U C46G	0.13

Variant	self-cleavage
C18G U32C	0.15
A39U A41C	0.13
C18G G40U	0.06
U38C A39U	0.7
C3G C13A	0.48
A24G G35C	0.17
A26C A39U	0.43
A12G A41G	0.03
G29A C46U	0.82
C8U G17A	0.15
A4C C10A	0.04
A4C C37U	0.16
U9C G30A	0.03
U9G C37U	0.15
G5A C42A	0.13
G17A A26U	0.21
A4G G36U	0.09
C23A A25C	0.61
G2A C42A	0.36
A4C G36C	0.09
U9C U32G	0.03
C15G A16G	0.05
C8U A26C	0.21
A4C G27C	0.07

Variant	self-cleavage
A14G G19A	1.03
C42G C46G	0.04
U9G G27U	0.06
G17C G33U	0.06
C10A C23A	0.06
C3G U32C	0.14
G2A A41C	0.08
C18G U32G	0.06
C3G C45U	0.33
G30U	1.62
G22A A24C	0.48
C18A C46A	0.95
U9G U28C	0.04
A14C A16C	0.08
G22U C37G	0.03
A14C U43A	0.2
G21U G40C	0.11
C42A C45A	0.09
G36U G44C	0.08
G5A C8U	0.44
C23A A39C	0.27
A25G C37A	0.05
A4C G33A	0.29
G7U G44A	0.09

Variant	self-cleavage
G27C G40U	0.12
G19C U34C	1.22
G17U U38G	0.08
A6G G22C	0.07
A11G C13A	0.04
G5A C8A	0.27
G2U C10G	0.02
G17C C18U	0.08
A26C C37U	0.07
G2A G27A	0.66
G2A U34G	0.13
A11G A12U	0.04
G21A U34G	0.64
G2C G17U	0.06
A6G U28A	0.05
A16U C23A	0.19
C10G G17C	0.23
G2C C31A	0.07
U32A U38C	0.07
G22U G33A	0.63
A12G A39C	0.04
G19C G36C	0.05
A11G G30U	0.04
U34C G36C	0.08

Variant	self-cleavage
C15U C23A	2.82
A25C G35C	0.1
U28A G29A	0.6
G1U G17C	0.05
G40U	0.15
G17C A41C	0.04
G29U G33C	0.06
G35U U38G	0.03
A6C G7C	0.08
G30C C45G	0.21
A6U U34C	0.12
C3G C37U	0.5
C15A G17U	0.09
U38C	0.6
C8A C42G	0.19
G27U A39G	0.22
C8A C10A	0.04
G2U U34G	0.03
C15A G21U	0.12
G33C U38A	0.04
C13A G21U	0.23
G35C G44A	0.09
C15A U32G	0.06
C3U C31U	0.1

Variant	self-cleavage
C10U G35C	0.04
G1A A14C	0.1
G17U G40A	0.05
G7U A41C	0.24
A24C G35A	0.09
C13G C23G	0.13
C15A G19C	0.14
C10G C18A	0.08
U28C U32A	0.09
U20G G35A	0.06
G21U G29A	0.63
A25G G36A	0.15
G7A U34C	0.09
G36U C45G	0.12
C23G G27A	0.95
A16C G44C	0.02
A41U U43G	0.17
G30A U32C	0.21
G5A G30U	0.19
G5U C8A	0.53
C13U C18G	0.05
U28C A41C	0.03
C3A G19C	0.18
C15U U43C	0.14

Variant	self-cleavage
U38C C42A	0.07
A25U G36C	0.05
C15U G19C	1.39
C8G C31U	0.11
A25U U32G	0.3
G1C G7C	0.02
A39U C46G	0.5
A16U C31U	0.03
G17U U34G	0.04
U34C G44A	0.12
C13A U28A	0.07
G22C G36U	0.1
C31A G40U	0.05
G33C C45G	0.06
G21A G33C	0.12
C13U U28C	0.28
G40A U43A	0.06
U20C A24G	0.44
G1U G36U	0.11
G7A C42A	0.18
G30U C37A	0.08
C15A U43C	0.04
C23U U43A	0.07
A11G G27A	0.02

Variant	self-cleavage
A12U U43A	0.04
U20A G40U	0.08
G2U G27C	0.09
U20G G35C	0.11
A11C G21U	0.1
C3U U20C	0.15
C10A G44A	0.07
C8U G17U	0.14
C13A C31G	0.06
A14C C15U	0.07
C3U G40C	0.07
G1A U34C	0.14
C8G G29A	0.06
A11G G36A	0.02
C8U G27A	0.14
G19A A41G	0.29
A6U U20A	0.37
U20A U38A	0.43
G36C A39G	0.07
A11C G17A	0.03
G17A U28A	0.26
G44C C45A	0.05
